Target: BLM helicase, mutated in Bloom's syndrome (human (endogenous in U2OS), UniProt P54132 1-1417)
Assay: cell-based or functional assay

BLM helicase, mutated in Bloom's syndrome, sequence (P54132 whole entry, change not shown): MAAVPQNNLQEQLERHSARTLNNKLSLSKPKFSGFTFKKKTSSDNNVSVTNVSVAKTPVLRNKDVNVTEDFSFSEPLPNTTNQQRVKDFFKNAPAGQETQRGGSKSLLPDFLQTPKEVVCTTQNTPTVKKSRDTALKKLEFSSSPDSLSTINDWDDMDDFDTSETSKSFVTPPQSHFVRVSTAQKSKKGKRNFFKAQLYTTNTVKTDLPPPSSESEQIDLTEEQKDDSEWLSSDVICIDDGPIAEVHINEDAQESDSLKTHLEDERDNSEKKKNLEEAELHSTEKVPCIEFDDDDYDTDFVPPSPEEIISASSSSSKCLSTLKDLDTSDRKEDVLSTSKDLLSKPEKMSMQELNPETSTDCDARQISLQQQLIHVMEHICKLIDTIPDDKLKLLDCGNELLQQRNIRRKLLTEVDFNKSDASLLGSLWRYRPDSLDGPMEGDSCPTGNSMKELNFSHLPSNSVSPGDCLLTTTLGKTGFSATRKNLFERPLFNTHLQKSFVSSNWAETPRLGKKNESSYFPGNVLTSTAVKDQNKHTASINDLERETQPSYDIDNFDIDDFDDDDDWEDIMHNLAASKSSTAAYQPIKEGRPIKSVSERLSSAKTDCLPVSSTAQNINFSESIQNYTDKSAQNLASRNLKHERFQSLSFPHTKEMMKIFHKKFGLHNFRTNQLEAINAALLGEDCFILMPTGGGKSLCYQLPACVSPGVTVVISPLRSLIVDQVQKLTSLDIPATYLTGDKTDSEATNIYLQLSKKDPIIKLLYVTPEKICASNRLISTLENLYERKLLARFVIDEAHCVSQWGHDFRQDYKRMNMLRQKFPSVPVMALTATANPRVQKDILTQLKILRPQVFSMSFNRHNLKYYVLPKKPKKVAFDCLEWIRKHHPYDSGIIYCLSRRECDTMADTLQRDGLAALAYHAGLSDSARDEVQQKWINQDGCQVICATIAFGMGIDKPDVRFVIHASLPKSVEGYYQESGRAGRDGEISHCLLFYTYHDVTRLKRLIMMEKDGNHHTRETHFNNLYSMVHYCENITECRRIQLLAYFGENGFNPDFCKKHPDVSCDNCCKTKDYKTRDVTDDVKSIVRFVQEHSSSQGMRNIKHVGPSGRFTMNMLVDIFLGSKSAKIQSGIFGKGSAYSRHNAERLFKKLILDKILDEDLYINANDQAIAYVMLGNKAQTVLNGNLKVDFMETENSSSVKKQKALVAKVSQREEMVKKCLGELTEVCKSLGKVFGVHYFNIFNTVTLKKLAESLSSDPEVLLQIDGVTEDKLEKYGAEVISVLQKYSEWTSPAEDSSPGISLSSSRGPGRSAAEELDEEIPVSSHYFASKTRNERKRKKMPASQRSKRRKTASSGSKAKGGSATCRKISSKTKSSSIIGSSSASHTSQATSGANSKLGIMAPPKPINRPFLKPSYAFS

B1: BRCA1 tumor suppressor (natural protein, human (endogenous in U2OS), UniProt P38398 1-1863, looked up)
chain: MDLSALRVEEVQNVINAMQKILECPICLELIKEPVSTKCDHIFCKFCMLKLLNQKKGPSQCPLCKNDITKRSLQESTRFSQLVEELLKIICAFQLDTGLEYANSYNFAKKENNSPEHLKDEVSIIQSMGYRNRAKRLLQSEPENPSLQETSLSVQLSNLGTVRTLRTKQRIQPQKTSVYIELGSDSSEDTVNKATYCSVGDQELLQITPQGTRDEISLDSAKKAACEFSETDVTNTEHHQPSNNDLNTTEKRAAERHPEKYQGSSVSNLHVEPCGTNTHASSLQHENSSLLLTKDRMNVEKAEFCNKSKQPGLARSQHNRWAGSKETCNDRRTPSTEKKVDLNADPLCERKEWNKQKLPCSENPRDTEDVPWITLNSSIQKVNEWFSRSDELLGSDDSHDGESESNAKVADVLDVLNEVDEYSGSSEKIDLLASDPHEALICKSERVHSKSVESNIEDKIFGKTYRKKASLPNLSHVTENLIIGAFVTEPQIIQERPLTNKLKRKRRPTSGLHPEDFIKKADLAVQKTPEMINQGTNQTEQNGQVMNITNSGHENKTKGDSIQNEKNPNPIESLEKESAFKTKAEPISSSISNMELELNIHNSKAPKKNRLRRKSSTRHIHALELVVSRNLSPPNCTELQIDSCSSSEEIKKKKYNQMPVRHSRNLQLMEGKEPATGAKKSNKPNEQTSKRHDSDTFPELKLTNAPGSFTKCSNTSELKEFVNPSLPREEKEEKLETVKVSNNAEDPKDLMLSGERVLQTERSVESSSISLVPGTDYGTQESISLLEVSTLGKAKTEPNKCVSQCAAFENPKGLIHGCSKDNRNDTEGFKYPLGHEVNHSRETSIEMEESELDAQYLQNTFKVSKRQSFAPFSNPGNAEEECATFSAHSGSLKKQSPKVTFECEQKEENQGKNESNIKPVQTVNITAGFPVVGQKDKPVDNAKCSIKGGSRFCLSSQFRGNETGLITPNKHGLLQNPYRIPPLFPIKSFVKTKCKKNLLEENFEEHSMSPEREMGNENIPSTVSTISRNNIRENVFKEASSSNINEVGSSTNEVGSSINEIGSSDENIQAELGRNRGPKLNAMLRLGVLQPEVYKQSLPGSNCKHPEIKKQEYEEVVQTVNTDFSPYLISDNLEQPMGSSHASQVCSETPDDLLDDGEIKEDTSFAENDIKESSAVFSKSVQKGELSRSPSPFTHTHLAQGYRRGAKKLESSEENLSSEDEELPCFQHLLFGKVNNIPSQSTRHSTVATECLSKNTEENLLSLKNSLNDCSNQVILAKASQEHHLSEETKCSASLFSSQCSELEDLTANTNTQDPFLIGSSKQMRHQSESQGVGLSDKELVSDDEERGTGLEENNQEEQSMDSNLGEAASGCESETSVSEDCSGLSSQSDILTTQQRDTMQHNLIKLQQEMAELEAVLEQHGSQPSNSYPSIISDSSALEDLRNPEQSTSEKAVLTSQKSSEYPISQNPEGLSADKFEVSADSSTSKNKEPGVERSSPSKCPSLDDRWYMHSCSGSLQNRNYPSQEELIKVVDVEEQQLEESGPHDLTETSYLPRQDLEGTPYLESGISLFSDDPESDPSEDRAPESARVGNIPSSTSALKVPQLKVAESAQSPAAAHTTDTAGYNAMEESVSREKPELTASTERVNKRMSMVVSGLTPEEFMLVYKFARKHHITLTNLITEETTHVVMKTDAEFVCERTLKYFLGIAGGKWVVSYFWVTQSIKERKMLNEHDFEVRGDVVNGRNHQGPKRARESQDRKIFRGLEICCYGPFTNMPTDQLEWMVQLCGASVVKELSSFTLGTGVHPIVVVQPDAWTEDNGFHAIGQMCEAPVVTREWVLDSVALYQCQELDTYLIPQIPHSHY
B1 was tested, and the “fold stimulation of BLM helicase activity by 3 nM full-length BRCA1 on a non-telomeric fork substrate” value was about 1.9 fold, the “fold stimulation of BLM helicase activity by 3 nM full-length BRCA1 on the fork substrate with two telomeric repeats” value was about 3.6 fold and the “initial unwinding rate of BLM (1.2 nM) on the telomeric fork in the presence of 3 nM BRCA1, fold increase” value was 1.7 fold.
